Test results reported in patent US20180105596A1 (ELSALYS BIOTECH, published 2018).
Where a chain is given by its changes, count along the chain named.

T1: cynomolgus Tyro3 ECD, His-Strep tagged
T1 construct: also called cyno TYRO3 ECD 8hisstrep
T1 extracellular domain: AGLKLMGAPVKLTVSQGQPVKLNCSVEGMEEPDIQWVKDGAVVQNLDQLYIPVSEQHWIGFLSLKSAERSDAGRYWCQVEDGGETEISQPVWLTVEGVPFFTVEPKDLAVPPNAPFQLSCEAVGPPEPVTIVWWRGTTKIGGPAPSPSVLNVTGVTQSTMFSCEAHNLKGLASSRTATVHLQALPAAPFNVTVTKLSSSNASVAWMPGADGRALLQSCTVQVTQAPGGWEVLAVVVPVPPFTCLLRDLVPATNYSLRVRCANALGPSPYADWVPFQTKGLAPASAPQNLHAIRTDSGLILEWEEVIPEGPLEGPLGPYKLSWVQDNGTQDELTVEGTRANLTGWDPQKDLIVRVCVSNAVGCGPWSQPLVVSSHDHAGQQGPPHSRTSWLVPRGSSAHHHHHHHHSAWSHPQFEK

T2: immunoglobulin-like domain Ig-2 of human Tyro3 (human, UniProt Q06418 139-220)
T2 construct: No fragment of Ig-2 alone was made
T2 sequence: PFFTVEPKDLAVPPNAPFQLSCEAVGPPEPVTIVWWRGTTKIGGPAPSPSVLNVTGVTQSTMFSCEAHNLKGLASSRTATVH

T3: Ig-1 and Ig-2 domains fragment of human Tyro3 ECD, His-Strep tagged (human)
T3 construct: also called Ig1-Ig2 fragment
T3 chain: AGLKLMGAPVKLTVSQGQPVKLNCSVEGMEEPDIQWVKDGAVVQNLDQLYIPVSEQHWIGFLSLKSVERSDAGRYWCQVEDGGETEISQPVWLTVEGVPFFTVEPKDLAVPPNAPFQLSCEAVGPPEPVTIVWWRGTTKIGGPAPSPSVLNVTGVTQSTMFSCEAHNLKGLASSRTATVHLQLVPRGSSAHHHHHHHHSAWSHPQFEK

T4: Ig-1 domain fragment of human Tyro3 ECD, His-Strep tagged (human)
T4 chain: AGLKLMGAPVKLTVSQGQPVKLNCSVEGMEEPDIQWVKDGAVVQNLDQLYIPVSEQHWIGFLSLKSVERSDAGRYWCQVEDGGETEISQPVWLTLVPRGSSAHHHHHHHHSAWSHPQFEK

T5: Tyro3 ECD Ig2-FNIII 1
T5 construct: also called Ig2 + FNIII 1 fragment of hTyro3 ECD, His-Strep tagged
T5 fragment: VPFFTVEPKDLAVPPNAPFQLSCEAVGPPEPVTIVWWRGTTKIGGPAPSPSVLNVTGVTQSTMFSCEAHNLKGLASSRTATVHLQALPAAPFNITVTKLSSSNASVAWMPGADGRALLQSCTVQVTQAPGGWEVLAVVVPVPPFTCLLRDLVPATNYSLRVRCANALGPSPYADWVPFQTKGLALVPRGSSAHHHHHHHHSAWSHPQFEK

T6: Tyro3 ECD FNIII 1-FNIII-2
T6 construct: also called FNIII 1 + FNIII 2 fragment of hTyro3 ECD, His-Strep tagged
T6 fragment: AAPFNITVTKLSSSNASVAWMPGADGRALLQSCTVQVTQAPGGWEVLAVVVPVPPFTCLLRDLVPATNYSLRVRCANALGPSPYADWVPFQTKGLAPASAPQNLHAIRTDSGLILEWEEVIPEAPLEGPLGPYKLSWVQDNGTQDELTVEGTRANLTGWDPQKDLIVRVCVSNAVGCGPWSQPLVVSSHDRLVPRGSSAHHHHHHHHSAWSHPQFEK

B1: anti-Tyro3 scFv 2414 (scFv, V domains shown)
VH: EVQLVQSGADVKKPGASLTISCQASGYTFTDYWISWVRQKPGKGLEWMGQINRHASNTMYGPSFQGHVTISADRSTATAYLQWRSLEASDTAMYYCVRSGGATSGGTIPEYYQHWGPGTLVTVSS
VL: SYELTQPPSVSVSPGQTARITCSGDALPKKYAYWYQQKSGQAPVLVIYEDWKRASGIPERFSGSSSGTMATLTISGAQVEDEADYYCYSQERKGNYFVFGGGTKLTVL
notes: Tested as a single-chain Fv made in E. coli
B2: anti-Tyro3 scFv 2410 (scFv, V domains shown)
VH: B1 VH with N52V, R53P, H54R, N57R, M59N, S99P, G100Y, G101F, A102Q
VL: B1 VL with W51E, K93N, F97A
notes: as for B1
B3: anti-Tyro3 scFv 2415 (scFv, V domains shown)
VH: B1 VH with N52R, R53G, H54P, N57A, M59H, S99H, G100Q, G101Q, A102Q
VL: B1 VL with W51K, A54I, Q90T, E91S, R92T, K93G, F97M
notes: as for B1
B4: anti-Tyro3 scFv 2717 (scFv, V domains shown)
VH: EVQLVQSGADVKKPGASLTISCQASGYTFTDYWISWVRQKPGKGLEWMGEIFLPPSTTVYGPSFQGHVTISADRSTATAYLQWRSLEASDTAMYYCVRQTRLTSGGTIPEYYQHWGPGTLVTVSS
VL: B1 VL with W51N, A54G, Q90K, E91S, R92P, K93E, F97M
notes: as for B1
B5: anti-Tyro3 scFv 2709 (scFv, V domains shown)
VH: B1 VH with Q50A, N52S, H54N, A55G, N57T, M59Y, A102L, T122P
VL: B1 VL with W51K, A54V, Q90L, E91A, R92V, K93D, F97G
notes: as for B1
B6: anti-Tyro3 scFv 2711 (scFv, V domains shown)
VH: B1 VH with N52R, R53G, H54Q, A55H, N57S, M59L, S99H, G101A, A102S
VL: B1 VL with W51A, A54S, Q90L, E91S, R92D, K93S
notes: as for B1
B7: anti-Tyro3 scFv 2713 (scFv, V domains shown)
VH: B1 VH with Q50R, N52S, A55G, N57Q, M59Y, S99A, A102Q
VL: B1 VL with W51H, Q90I, E91S, R92P, K93A, F97G
notes: as for B1
B8: anti-Tyro3 scFv 2412 (scFv, V domains shown)
VH: B1 VH with Q50R, N52R, R53P, H54L, A55L, N57H, G100W, G101L
VL: B1 VL with W51A, A54V, Q90A, E91S, R92A, K93N, F97R
notes: as for B1

Biological target: T1, cynomolgus Tyro3 ECD, His-Strep tagged
Assay: sandwich ELISA, Strep-tagged cynomolgus Tyro3 ECD captured on StrepMAB plate, scFv 3-fold from 10 µg/mL, anti-FLAG-HRP
Protocol: [The procedure below names another species; the source lists this species under the same test.] A double sandwich ELISA was developed. This assay consisted in measuring the binding of the anti-Tyro3 antibodies to be tested on immobilized strep-tagged entire human Tyro3 ECD captured directly on ELISA plate pre-coated with an anti-strep mAb (StrepMAB-Immo coated microplates from IBA biotech). Briefly, the 96 wells of StrepMAB-Immo coated microplate were washed three times with 300 μL of the PBS Tween 0.2% (referred as ELISA washing solution). The capture of an excess of purified strep tagged hTyro3 ECD protein was achieved by a one hour incubation at room temperature. In these experiments, 3 μg of purified protein diluted in PBS, BSA 1% (referred as ELISA diluent solution) were immobilized per well. The wells were washed three times with 300 μL of the washing solution. The non-specific binding sites on the well surface were blocked during 60 min at room temperature with 200 μL/well of blocking solution (PBS, BSA 3%). The wells were washed five times with 300 μL of the washing solution. Then, 100 μl (in duplicates) of the different concentrations of anti-Tyro3 antibodies to be tested diluted in ELISA diluent solution, were added per well and allowed to incubate during 1 hour at room temperature. An Irrelevant control IgG2656 was also added in this experiment. For anti-Tyro3 antibodies in the ScFv format, experiments were performed with 6 concentrations in duplicates (FIG. 3A). For anti-Tyro3 antibodies in the IgG format, experiments were performed with 9 concentrations in duplicates (FIG. 3B). […] For IgGs experiments, starting concentration for first dilution was 3 μg/ml and then dilutions of 3 fold in the ELISA diluent solution were performed. The wells were washed five times with 300 μL of the washing solution. […] The mix was allowed to incubated 60 min at room temperature.

Binder	binding result
B1	binds
B2	binds
B3	binds
B4	binds
B5	binds
B6	binds
B7	binds
B8	binds

Biological target: T2, immunoglobulin-like domain Ig-2 of …
Assay: double sandwich ELISA on captured fragments of hTyro3 ECD

Binder	binding result
B1	no binding (tested: 10 µg/mL)
B2	no binding (tested: 10 µg/mL)
B4	no binding (tested: 10 µg/mL)
B5	no binding (tested: 10 µg/mL)

Biological target: T3, Ig-1 and Ig-2 domains fragment of human …
Assay: sandwich ELISA, Strep-tagged fragment captured on StrepMAB plate, scFv 10 µg/mL (Table 17), anti-FLAG-HRP

Binder	binding result
B1	binds
B2	binds
B3	binds
B4	no binding (tested: 10 µg/mL)
B5	binds
B6	binds
B7	binds
B8	binds

Biological target: T4, Ig-1 domain fragment of human Tyro3 …
Assay: as above

Binder	binding result
B1	binds
B2	binds
B3	binds
B4	binds
B5	binds
B6	binds
B7	binds
B8	binds

Biological target: T5, Tyro3 ECD Ig2-FNIII 1
Assay: as above

Binder	binding result
B3	binds
B4	no binding (tested: 10 µg/mL)
B5	no binding (tested: 10 µg/mL)
B6	binds
B7	binds
B8	binds

Biological target: T6, Tyro3 ECD FNIII 1-FNIII-2
Assay: as above

Binder	binding result
B1	no binding (tested: 10 µg/mL)
B2	no binding (tested: 10 µg/mL)
B3	no binding (tested: 10 µg/mL)
B4	no binding (tested: 10 µg/mL)
B5	no binding (tested: 10 µg/mL)
B6	no binding (tested: 10 µg/mL)
B7	no binding (tested: 10 µg/mL)
B8	no binding (tested: 10 µg/mL)
